# Laboratory results taken from article PMC11528232 (Cell Reports Medicine, 2024).
# B1: Zolbetuximab analog (antibody, V domains shown)
# VH: QVQLQQPGAELVRPGASVKLSCKASGYTFTSYWINWVKQRPGQGLEWIGNIYPSDSYTNYNQKFKDKATLTVDKSSSTAYMQLSSPTSEDSAVYYCTRSWRGNSFDYWGQGTTLTVSS
# VL: DIVMTQSPSSLTVTAGEKVTMSCKSSQSLLNSGNQKNYLTWYQQKPGQPPKLLIYWASTRESGVPDRFTGSGSGTDFTLTISSVQAEDLAVYYCQNDYSYPFTFGSGTKLEIK
# Tests used:
# FcγRI = FcγRI (UniProt P12314); assay: SPR
# FcγRIIA_(H131) = FcγRIIA_(H131) (UniProt P12318); assay: SPR
# Sequence of FcγRIIA_(H131) (P12318 34-317): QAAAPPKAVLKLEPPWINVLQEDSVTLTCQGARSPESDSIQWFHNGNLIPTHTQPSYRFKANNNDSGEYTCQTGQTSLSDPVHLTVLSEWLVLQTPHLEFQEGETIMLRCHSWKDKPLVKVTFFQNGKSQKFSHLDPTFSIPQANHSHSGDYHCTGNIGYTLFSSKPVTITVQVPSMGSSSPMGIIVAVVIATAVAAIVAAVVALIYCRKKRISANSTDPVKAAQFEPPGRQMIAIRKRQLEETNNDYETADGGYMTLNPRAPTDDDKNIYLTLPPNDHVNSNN
# FcγRIIIA_(F158) = FcγRIIIA_(F158) (UniProt P08637); assay: SPR
# Sequence of FcγRIIIA_(F158) (P08637 17-254): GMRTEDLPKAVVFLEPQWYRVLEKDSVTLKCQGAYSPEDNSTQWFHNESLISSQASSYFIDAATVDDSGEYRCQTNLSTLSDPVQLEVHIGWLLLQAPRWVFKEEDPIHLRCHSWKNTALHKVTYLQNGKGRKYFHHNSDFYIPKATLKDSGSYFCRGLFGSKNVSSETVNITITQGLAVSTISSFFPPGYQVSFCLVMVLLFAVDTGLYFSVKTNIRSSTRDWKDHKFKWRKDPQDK
# FcRn = FcRn (UniProt P55899); assay: SPR
# Sequence of FcRn (P55899 24-365, chain 1 of 2): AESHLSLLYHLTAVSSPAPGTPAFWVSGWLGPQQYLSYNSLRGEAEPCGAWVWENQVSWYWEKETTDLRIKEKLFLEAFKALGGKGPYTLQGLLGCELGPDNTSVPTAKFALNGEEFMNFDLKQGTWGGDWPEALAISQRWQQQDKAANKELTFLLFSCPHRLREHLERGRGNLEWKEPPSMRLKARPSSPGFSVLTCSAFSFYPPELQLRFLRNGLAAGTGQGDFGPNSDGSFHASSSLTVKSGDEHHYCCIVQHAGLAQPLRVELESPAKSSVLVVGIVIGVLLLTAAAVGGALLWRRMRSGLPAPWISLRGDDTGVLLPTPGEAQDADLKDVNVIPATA
# Sequence of FcRn (P61769 21-119, chain 2 of 2, further chain): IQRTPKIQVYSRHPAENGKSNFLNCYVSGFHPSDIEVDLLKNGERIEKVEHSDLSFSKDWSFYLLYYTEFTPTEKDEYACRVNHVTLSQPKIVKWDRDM
# FcγRIIIA_(V158) = assay: SPR
# Sequence of FcγRIIIA_(V158) (P08637 17-208): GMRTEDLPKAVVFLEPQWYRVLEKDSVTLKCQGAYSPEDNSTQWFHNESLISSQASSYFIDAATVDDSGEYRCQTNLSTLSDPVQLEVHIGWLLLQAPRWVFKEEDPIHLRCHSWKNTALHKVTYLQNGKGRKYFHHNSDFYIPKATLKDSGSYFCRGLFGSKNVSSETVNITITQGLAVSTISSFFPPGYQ
# human Claudin18.2 = human Claudin18.2 (Homo sapiens, UniProt P56856-2); assay: flow cytometry on cells
# Sequence of FcγRI (P12314 16-374): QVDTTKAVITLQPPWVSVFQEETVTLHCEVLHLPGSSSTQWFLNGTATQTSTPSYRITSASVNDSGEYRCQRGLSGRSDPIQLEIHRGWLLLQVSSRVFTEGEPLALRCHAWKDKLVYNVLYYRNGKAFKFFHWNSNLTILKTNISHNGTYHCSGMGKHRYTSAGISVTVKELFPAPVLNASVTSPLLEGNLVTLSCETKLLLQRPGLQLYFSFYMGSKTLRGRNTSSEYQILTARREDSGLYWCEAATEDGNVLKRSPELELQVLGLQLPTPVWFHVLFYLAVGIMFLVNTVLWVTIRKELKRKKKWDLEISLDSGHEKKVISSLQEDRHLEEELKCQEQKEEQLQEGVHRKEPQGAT
Molecule,Kd (FcγRI),Kd (FcγRIIA_(H131)),Kd (FcγRIIIA_(F158)),Kd (FcRn),Kd (FcγRIIIA_(V158)),EC50 (human Claudin18.2)
CM311 (antibody),7.23 nM,2770 nM,330 nM,1530 nM,78.9 nM,–
CMG901 (antibody),5.95 nM,6290 nM,490 nM,1730 nM,126 nM,–
B1,–,–,–,–,–,2.2 nM
